The target of the data set is thrombin (Bos taurus, UniProt P00735;P00735 P00735:318-366,P00735:367-625). Description: CD titration at 295 nm, low temperature, without K+; signal increases with thrombin; Tm with thrombin 22 C (53 C with K+). As to conditions: tags: copies: 1; antiparallel unimolecular G4. The method, then: CD spectra were recorded on Jasco J-815 CD Spectrometer equipped with a Jasco PTC-424S/15 peltier system. 2 mm path-length quartz cuvettes were used for a sample volume 500 μl and strand concentration of 5 μM in 10 mM Na/K-phosphate buffer (pH 7.5) containing 100 mM NaCl/KCl respectively. Oligomers prepared in buffer were annealed by heating at 95° C. for 5 minutes, then slowly cooled to room temperature, followed by refrigeration for 5-6 hours before use. Spectral scans were collected over a wavelength range 200-320 nm at a scanning rate of 100 nm min⁻¹. The spectra were collected as an average of three scans for each sample.
Biochem. Biophys. Res. Commun. 352, 812-817 (2007). […] An increase in the CD signal amplitude upon incremental addition of thrombin is observed even at relatively low concentrations of thrombin. In case of isod-TBA-2 and isod-TBA-3, CD band at 295 nm and G-quadruplex structure was not evident in the absence of either thrombin or K⁺, which is also supported by ¹H NMR. Upon incremental addition of thrombin, the CD maximum at 295 nm emerges for isod-TBA-2 and isod-TBA-3. […] Further, the temperature-dependent stability of the quadruplex structure was followed by recording the CD amplitude at 295 nm with increasing temperature. The strength of d-TBA-1 G-quadruplex was the highest with Tₘ=22° C., followed by iso-d-TBA-3 (Tₘ 13° C.) and iso-d-TBA-2 (Tₘ<10° C.). […]

The source of these data is US20160194641, “G-RICH isoDNA SEQUENCES FORMING G-QUADRUPLEX STRUCTURE, THEIR FUNCTION AS [sequence] AND A PROCESS FOR THE PREPARATION THEREOF” (COUNCIL OF SCIENTIFIC & INDUSTRIAL RESEARCH, published 2016).

For GGTTGGTGTGGTTGG (structured_DNA) [d-TBA-1], the binding result is reported as “binds”.
